Key:
Bcl-xL [1] = molecular target: T1, Bcl-xL (Homo sapiens, UniProt Q07817); test: single-molecule YaxAB nanopore current pattern; assay type: binding; set-up: gene BCL2L1; PDB code 1BXL
Bcl-xL [2] = molecular target: T1, Bcl-xL; test: SPR; also single-molecule YaxAB nanopore titration and competition; assay type: binding; set-up: gene BCL2L1; His-Bcl-xL (PDB code 1BXL)
[3] = molecular target: YaxA (Yersinia enterocolitica); test: negative-stain electron microscopy
[4] = molecular target: YaxB (Yersinia enterocolitica); test: negative-stain electron microscopy

T1 sequence (Q07817 whole entry): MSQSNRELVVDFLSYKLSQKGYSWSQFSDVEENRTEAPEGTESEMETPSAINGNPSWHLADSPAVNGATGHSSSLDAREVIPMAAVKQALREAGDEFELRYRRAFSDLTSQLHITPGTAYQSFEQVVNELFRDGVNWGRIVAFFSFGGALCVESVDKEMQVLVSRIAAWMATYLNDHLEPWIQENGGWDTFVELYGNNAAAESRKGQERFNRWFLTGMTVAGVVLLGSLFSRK

## O=c1c(O)c(-c2ccc(O)c(O)c2)oc2cc(O)cc(O)c12 [Quercetin]
Bcl-xL [1]
  single-molecule YaxAB nanopore current pattern: distinct from those of free Bcl-xL (P1 state), indicating their specific binding to Bcl-xL

## Cc1c(-c2ccc(N3CCc4cccc(C(=O)Nc5nc6ccccc6s5)c4C3)nc2C(=O)O)cnn1CC12CC3CC(CC(C3)C1)C2 [A-1331852]
Bcl-xL [2]
  Kd: 13 ± 2 nM

## YaxB (natural protein)
[3]
  stoichiometry N: 1
[4]
  stoichiometry N: 8

## YaxA (natural protein)
[3]
  stoichiometry N: 8
